Ends that are not written are not given here.

The target of one experiment is T1, inactive GIP, GIP(3-42).
T1 peptide: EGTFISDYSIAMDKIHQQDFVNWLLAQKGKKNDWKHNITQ
Description: sandwich ELISA, anti-total GIP capture antibody, biotinylated m1 as detection antibody at 1 ug/mL. As to the method: The reactivity between the monoclonal antibody prepared in Production Example 1 and active GIP was confirmed by ELISA. The amino group of the anti-active GIP monoclonal antibody was biotinylated with NH2 group biotinylation kit (manufactured by Dojindo Laboratories). ELISA was performed using the produced biotinylated anti-active GIP monoclonal antibody at 1 μg/mL instead of a detection antibody, GIP detection antibody (biotinylated anti-total GIP monoclonal antibody), included in Human (total) GIP ELISA kit (manufactured by EMD Millipore Corporation). A […] dilution series of GIP(1-42) or GIP(3-42) was prepared in 6 steps (8.2 to 2000 pg/mL) with a 2000 pg/mL solution as the highest concentration. By using an anti-total GIP monoclonal antibody (included in Human GIP (total) ELISA kit manufactured by EMD Millipore Corporation) as a capture antibody, the biotinylated anti-active GIP monoclonal antibody as a detection antibody, and a peroxidase-streptavidin conjugate for detection, sandwich ELISA was conducted to prepare a calibration curve with GIP concentration on the X-axis and 450 nm-590 nm absorbance on the Y-axis (FIG. 1).
(In general: In an ELISA, binding on a coated surface is turned into a signal by an enzyme label.)

Experiment [1] has as its target T2, PEGylated N-terminus 15 amino acids of active GIP (GIP(1-15)), antigen (1) for measurement (also: PEGylated, site not given here).
T2 construct: also called PEGylated GIP(1-15)
T2 peptide: YAEGTFISDYSIAMD
Description: ELISA, immobilized antigen, hybridoma culture supernatant. The protocol: (§1) The reaction between the hybridoma culture supernatant and the antigen (1) and (2) for measurement was evaluated by ELISA using immobilized antigen (1) and (2), and hybridomas that are positive for the antigen (1) and negative for the antigen (2) were selected as anti-active GIP monoclonal antibody-producing hybridomas.

Experiment [2] concerns the target T3, PEGylated N-terminus 13 amino acids of inactive GIP (GIP(3-15)), antigen (2) for measurement (also: PEGylated, site not given here).
T3 construct: Immobilized on the ELISA plate; also called PEGylated GIP(3-15)
T3 peptide: EGTFISDYSIAMD
Described as above. The protocol:
as §1

B1: anti-active GIP monoclonal antibody produced by hybridoma 9B9H5-B9 line (Production Example 1) (antibody, V domains shown)
VH: QVQLQQPGAELVKPGASVKLSCKASGYTFTSFWMHWVIQRPGQGLEWIGEMNPSDGRTHFNEKFKTKATLTIDTSSNTAYMELNSLTSEDSAVYYCARRMEDWGQGTLVTVSA
VL: DIKMTQSPSSMYASLGERVTITCKASQDINSYLGWFQQKPGKSPKTLIYGANRLVDGVPSRFSGSGSGQDYSLTISSLEYDDMGIYYCLQYDEFPLTFGAGTKLELKR
notes: also called anti-active GIP antibody; anti-GIP antibody
Turning to B1, the binding result with inactive GIP, GIP(3-42) is on record as “no binding (tested: 2000 pg/mL)”; in experiment [1], “binds”; in experiment [2], “no binding”.

These data come from patent US20190330334A1 (KAO, published 2019).
